The values that follow come from US7435413 (dated 2008).

The target in the test is T1, sTF (soluble human tissue factor 1-219) (human).
T1 chain: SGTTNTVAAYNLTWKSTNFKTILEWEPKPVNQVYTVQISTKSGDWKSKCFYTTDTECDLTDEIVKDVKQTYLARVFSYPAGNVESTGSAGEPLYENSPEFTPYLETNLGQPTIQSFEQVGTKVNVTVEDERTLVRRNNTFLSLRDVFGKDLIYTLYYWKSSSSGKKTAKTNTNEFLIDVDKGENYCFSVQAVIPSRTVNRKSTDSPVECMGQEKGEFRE
Briefly: SPR.

B1: 5G6 (antibody, V domains shown)
VH: EVLLQQSGPELVKPGASVKIPCKASGYTFTEYNMDWVKQSHGKSLEWIGDINPNNGNTIYNQKFKGKATLTVDKSSTTAYLELRSLTSEDTAVYFCARDHDYYFDFWGQGTTLTVSS
VL: DIQMTQTPASQSASLGESVTITCLASQTIDTWLAWYQQKPGKSPQLLIYAATSLADGVPSRFSGSGSGTKFSFKISSLQAEDFVSYYCQQPYSSPYTFGGGTKLELKR
Molecule B1 gave a Kd of 1.7 nM.
